The conditions of series [1]: simulated gi fluid.
The conditions of series [2]: rat, in vivo, po.
Description: Rat pharmacokinetic studies. Male Sprague Dawley rats with indwelling jugular vein cannula (JVC) were purchased from Harlan Laboratories and acclimated to the Test Facility (Agilux Laboratories) for at least two days prior to study initiation. Prior to dose administration animals were fasted overnight (11-13 h) and remained fasted until completion of the study. Test articles were orally administered via a bulb-tipped 18 gauge stainless steel gavage needle attached to a syringe. The weight of all dose syringes were recorded prior to and following dosing to more accurately determine the amount of solution dosed. Serial blood samples (˜300 μL) were collected from the JVC at time 0 (pre-dose) and 0.25, 0.5, 1, 2, and 4 h post-dose. Blood samples were collected into tubes containing the anti-coagulant K2EDTA, a general protease inhibitor cocktail (Sigma P8340, diluted 1:100 in whole blood), and a DPP IV inhibitor (Millipore DPP4, diluted 1:100 in whole blood). Immediately following blood collection tubes were vortexed and stored on wet ice until processing to plasma by centrifugation (3,500 rpm at 5° C.) within 1 h of collection. Plasma samples were then transferred into new tubes and stored at −80° C.
The concentration of Glu, Ser, His, Gly, Thr, Arg, Ala, Tyr, Val, Met, Phe, Ile, Leu, and Lys in the plasma samples was determined by HPLC amino acid analysis, as described herein. Prior to HPLC amino acid analysis, insoluble particles were removed from plasma samples by centrifugation (1100×g at 4° C.) for 10 min. A 25 μL sample of the soluble fraction was then transferred to a 96-well plate, for some samples an internal standard (Norvaline, Agilent) was added to each plasma sample at final concentration of 0.5 mM.
The conditions of series [3]: rat, in vivo.
Description: A rat pharmacokinetic study with oral administration of native and modified forms of SEQID-00363 was performed as described herein. The indigestible marker Cobalt-EDTA was formulated at 50 mg/L in the dosed protein solutions to monitor differences in intestinal transit rate between treatment groups and individual rats. Following the final blood collection (at t=4 h) rats were euthanized and the terminal ileum (20 cm of small intestine prior to the cecum) and its contents (the digesta) were collected into a pre-weighed tube. The ileum was flushed with saline and pooled with the digesta. The pH of the digesta was adjusted to ˜3.0 with HCl in order to inactivate all enzymes. The ileum samples were placed into separate pre-weighed 15 mL conical tubes. All samples were flash frozen in liquid nitrogen, and stored at −80° C. until further analysis. Individual ileum and ileum content weights were calculated and recorded for each sample.
A sample of the digesta, which exists as a heterogenous solution containing insoluble particles, was used in the Coomassie Plus Protein Assay, as described herein, to determine protein concentration.

B1: Deglycosylated SEQID-00363: SEQID-00363 with mannose glycans enzymatically reduced (protein)
chain: ATLDSWLSNEATVARTAILNNIGADGAWVSGADSGIVVASPSTDNPDYFYTWTRDSGLVLKTLVDLFRNGDTSLLSTIENYISAQAIVQGISNPSGDLSSGAGLGEPKFNVDETAYTGSWGRPQRDGPALRATAMIGFGQWLLDNGYTSTATDIVWPLVRNDLSYVAQYWNQTGYDLWEEVNGSSFFTIAVQHRALVEGSAFATAVGSSCSWCDSQAPEILCYLQSFWTGSFILANFDSSRSGKDANTLLGSIHTFDPEAACDDSTFQPCSPRALANHKEVVDSFRSIYTLNDGLSDSEAVAVGRYPEDTYYNGNPWFLCTLAAAEQLYDALYQWDKQGSLEVTDVSLDFFKALYSDAATGTYSSSSSTYSSIVDAVKTFADGFVSIVETHAASNGSMSEQYDKSDGEQLSARDLTWSYAALLTANNRRNSVVPASWGETSASSVPGTCAATSAIGTYSSVTVTSWPSIVATGGTTTTATPTGSGSVTSTSKTTATASKTSTSTSSTSCTTPTAVAVTFDLTATTTYGENIYLVGSISQLGDWETSDGIALSADKYTSSDPLWYVTVTLPAGESFEYKFIRIESDDSVEWESDPNREYTVPQACGTSTATVTDTWR
modifications: deglycosylated; Aspergillus niger
Take B1: the “SGF Half-life (t½)” value in series [1] was 4.3 min. Moreover, in series [2], the “bioavailability of amino acids (plasma free amino acids over 4 h)” value is “did not increase the bioavailability of Leucine or EAAs, it did increase the bioavailability of Serine and Threonine”. The “total protein mass in digesta samples” value in series [3] was 7.7 mg.

The values are drawn from patent publication US20260069656A1, “Nutritive Polypeptides and Formulations Thereof, and Methods of Production and Use Thereof” (Axcella Health Inc., priority 2013, published 2026).
